{
  "source": "patent EP4653453A1",
  "molecular_target": "single antigen M1 peptide segment (monkeypox virus M1 protein) (Monkeypox virus isolate MPXV_USA_2022_MA001) (UniProt M1LBP0)",
  "sequence (M1LBP0 2-181 limits assumed)": "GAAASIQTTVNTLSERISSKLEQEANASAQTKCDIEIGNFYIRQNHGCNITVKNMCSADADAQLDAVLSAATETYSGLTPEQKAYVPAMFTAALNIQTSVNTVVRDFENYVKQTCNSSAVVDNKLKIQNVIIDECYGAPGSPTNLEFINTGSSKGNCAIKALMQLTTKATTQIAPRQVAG",
  "assay": "SPR",
  "data": [
    {"substance": "neutralizing antibody 7D11", "values": [
      {"measurement": "Kd", "value": 3.3, "unit": "nM"}
    ]}
  ]
}
